The values below come from paper PMC5430920 (Scientific Reports, 2017).

This data set concerns the molecule itself. Briefly: SEC. On the technique in general: Size exclusion chromatography separates by hydrodynamic size, large species first.

As a reminder, the stoichiometry N is the number of molecules, sites or subunits per partner or assembly.

B1: Mycobacterium tuberculosis orotate phosphoribosyltransferase (enzyme)
chain: MAGPDRAELAELVRRLSVVHGRVTLSSGREADYYVDLRRATLHHRASALIGRLMRELTADWDYSVVGGLTLGADPVATAIMHAPGRPIDAFVVRKSAKAHGMQRLIEGSEVTGQRVLVVEDTSTTGNSALTAVHAVQDVGGEVVGVATVVDRATGAAEAIEAEGLRYRSVLGLADLGLD
notes: also called MtOPRT; M. tuberculosis OPRTase
For B1, the “stoichiometry N” value was found to be 2.
